Ends that are not written are not given here. * marks the point of attachment. Biotin = O=C1N[C@H]2[C@H](CS[C@H]2CCCCC(=O)*)N1
B1: CFTR peptide 1403-L, soluble unmodified (peptide, UniProt P13569 1396-1410, looked up)
peptide: TVILCEHRIEAMLEC
notes: CFTR, 15-mer numbered by its middle residue 1403, from NBD2; source: synthetic peptide (Lifetein, unmodified, >85% purity)
B2: CFTR peptide 1398-S (peptide, UniProt P13569 1394-1402, looked up)
peptide: DCTVILCEH
notes: source: synthetic peptide (Lifetein, unmodified, >85% purity)
B3: CFTR peptide 1393-L, soluble unmodified (peptide, UniProt P13569 1386-1400, looked up)
peptide: RTLKQAFADCTVILC
notes: CFTR, 15-mer numbered by its middle residue 1393, from NBD2; source: synthetic peptide (Lifetein, unmodified, >85% purity)
B4: CFTR peptide 17-S (peptide, UniProt P13569 13-21, looked up)
peptide: SKLFFSWTR
notes: CFTR, 9-mer numbered by its central residue 17, from the NT; source: synthetic peptide (Lifetein, unmodified, >85% purity)
B5: CFTR peptide 618-S (peptide, UniProt P13569 614-622, looked up)
peptide: DKILILHEG
notes: as for B2
B6: CFTR peptide 1295-S (peptide, UniProt P13569 1291-1299, looked up)
peptide: QKVFIFSGT
notes: as for B2
B7: CFTR peptide 1293-L, soluble unmodified (peptide, UniProt P13569 1286-1300, looked up)
peptide: FGVIPQKVFIFSGTF
notes: as for B2
B8: CFTR peptide 469-S (peptide, UniProt P13569 465-473, looked up)
peptide: TSLLMVIMG
notes: as for B2
B9: CFTR peptide 1100-S (peptide, UniProt P13569 1096-1104, looked up)
peptide: LRWFQMRIE
notes: CFTR, 9-mer numbered by its central residue 1100, L4 side of the NT-L4 interface; source: synthetic peptide (Lifetein, unmodified, >85% purity)
B10: CFTR peptide 1403-L, biotinylated (library form) (peptide)
peptide: Biotin-GSGSTVILCEHRIEAMLEC
modifications: cysteine pairing not given here
notes: linker; CFTR, 15-mer numbered by its middle residue 1403, from NBD2; source: synthetic peptide (Mimotopes, PepSet purity)
B11: CFTR peptide 1393-L, biotinylated (library form) (peptide)
peptide: Biotin-GSGSRTLKQAFADCTVILC
modifications: cysteine pairing not given here
notes: linker; CFTR, 15-mer numbered by its middle residue 1393, from NBD2; source: synthetic peptide (Mimotopes, PepSet purity)

Target: T1, DNAJA1 (DJA1), His-tagged (UniProt P31689 1-397)
T1 construct: DNAJA1, J-domain co-chaperone of HSC70
Test: ELISA; competition: 1 μM chaperone mixed with soluble peptide (titrated up to 100 μM, or fixed 100 μM in the screens) and bound to immobilised 1097-L; Kd of the competing peptide from linearised competition curves
Details: both partners purified

Point of comparison: B3, Kd 15700 nM. Against it:
- B1 — 1.7-fold lower, 9150 nM
- B2 — within 1.5-fold, 18300 nM

Target: T2, HSC70 (HSPA8), His-tagged (UniProt P11142 1-646)
T2 construct: HSC70 (HSPA8), the constitutive form of HSP70
Test: as above
Details: both partners purified

T2 sequence (P11142 whole entry): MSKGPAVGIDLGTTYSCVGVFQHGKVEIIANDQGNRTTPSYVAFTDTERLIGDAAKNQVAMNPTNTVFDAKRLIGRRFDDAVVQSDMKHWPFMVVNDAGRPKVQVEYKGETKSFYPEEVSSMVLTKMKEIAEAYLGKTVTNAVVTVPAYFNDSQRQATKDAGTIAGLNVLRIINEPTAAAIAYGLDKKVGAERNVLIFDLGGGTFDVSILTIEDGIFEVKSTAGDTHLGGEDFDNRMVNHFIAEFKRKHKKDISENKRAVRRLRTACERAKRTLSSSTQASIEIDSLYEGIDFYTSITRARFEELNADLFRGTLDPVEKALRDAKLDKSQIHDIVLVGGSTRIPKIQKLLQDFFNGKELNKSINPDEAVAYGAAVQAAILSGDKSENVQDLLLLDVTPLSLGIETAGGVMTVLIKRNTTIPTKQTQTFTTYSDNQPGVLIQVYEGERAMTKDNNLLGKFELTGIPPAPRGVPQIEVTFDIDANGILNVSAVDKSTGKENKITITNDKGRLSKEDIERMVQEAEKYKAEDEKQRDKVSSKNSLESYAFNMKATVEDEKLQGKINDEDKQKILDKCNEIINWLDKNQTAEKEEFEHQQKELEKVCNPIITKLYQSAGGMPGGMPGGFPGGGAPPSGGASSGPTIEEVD

Point of comparison: B2, Kd 900 nM. Against it:
- B1 — 3-fold higher, 2660 nM
- B4 — 2-fold higher, 1760 nM
- B5 — 4.1-fold higher, 3730 nM
- B3 — within 1.5-fold, 1040 nM
- B6 — within 1.5-fold, 1260 nM
- B7 — 2.2-fold higher, 2020 nM
- B8 — 1.7-fold higher, 1560 nM

Target: T3, DNAJA2 (DJA2), His-tagged (UniProt O60884 1-412)
T3 construct: DNAJA2, J-domain co-chaperone of HSC70
Test: as above
Details: both partners purified

T3 sequence (O60884 whole entry): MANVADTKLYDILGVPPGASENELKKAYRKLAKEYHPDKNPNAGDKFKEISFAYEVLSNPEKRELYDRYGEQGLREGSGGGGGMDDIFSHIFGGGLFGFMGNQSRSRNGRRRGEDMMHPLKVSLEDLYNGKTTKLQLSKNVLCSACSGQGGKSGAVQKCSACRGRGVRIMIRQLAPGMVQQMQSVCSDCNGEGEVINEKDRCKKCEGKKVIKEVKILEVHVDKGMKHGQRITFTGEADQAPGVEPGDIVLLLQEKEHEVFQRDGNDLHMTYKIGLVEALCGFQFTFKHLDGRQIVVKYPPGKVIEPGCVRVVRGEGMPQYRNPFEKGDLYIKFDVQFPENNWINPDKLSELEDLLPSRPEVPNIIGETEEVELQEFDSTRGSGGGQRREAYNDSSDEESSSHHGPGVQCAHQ

Point of comparison: B9, Kd 8330 nM. Against it:
- B1 — 8.4-fold lower, 994 nM
- B2 — 1.9-fold lower, 4450 nM
- B3 — 5.6-fold lower, 1490 nM
- B8 — 1.7-fold lower, 4820 nM

Target: T1, DNAJA1 (DJA1), His-tagged
Test: ELISA; titration of increasing concentrations of chaperone on immobilised biotinylated peptide; HSC70 with ATP; apparent Kd from linearised binding curves
Details: both partners purified

Point of comparison: B10, Kd 1490 nM. Against it:
- B11 — within 1.5-fold, 1500 nM

Target: T2, HSC70 (HSPA8), His-tagged
Test: as above
Details: both partners purified

Point of comparison: B10, Kd 11100 nM. Against it:
- B11 — within 1.5-fold, 9060 nM

Target: T3, DNAJA2 (DJA2), His-tagged
Test: as above
Details: both partners purified

Point of comparison: B11, Kd 1120 nM. Against it:
- B10 — within 1.5-fold, 1190 nM

Reference: paper PMC7060200, “Selective Binding of HSC70 and its Co-Chaperones to Structural Hotspots on CFTR” (Scientific Reports, 2020)
